We go through 167 variants from the RNAGym collection of RNA variant scans (doi:10.7554/elife.90254).

The labels stand for the following.
B1: LINE1-mini (parent)
chain: GGCAGAGCUCAACACAGCGUGGCAAAGUGGCUGUGGCUAGACUGCC

Variants of B1 are the subject of the series. In words: self-cleavage, relative activity (ratio to wild type); higher = more cleavage; in vitro, sequencing; the parent is a self-cleaving ribozyme.
As to C18G G27C, the self-cleavage came to 0.38.
As to C18G G27A, the self-cleavage stood at 1.04.
C18G G27U: the self-cleavage amounted to 0.61.
Consider C18A C23G, for which the self-cleavage stood at 0.76.
In the case of C18A C23U it was 1.29; in that of C18A C23A, 1.02.
In the case of C18A A26C it was 2.92; in that of C18A A26G, 0.57.
Turning to C18A A26U, the self-cleavage was 0.69.
As for C18G A24U, the figure is 0.76.
For C18G A24C, the self-cleavage amounted to 0.17.
Take C18G A24G: the self-cleavage turned out to be 0.44.
In the case of G17C U38C it was 0.15; in that of G17C U38G, 0.03; in that of G17C U38A, 0.14.
G17C A24C: the self-cleavage was 0.19.
As for G17C A24U, the figure is 0.6; as for G17C A24G, 0.71.
In the case of C18G C45A it was 0.26.
Turning to C18G C45U, the self-cleavage is 0.13.
As for C18G C45G, the figure is 0.09.
For the variant G17U G33A, the self-cleavage came out at 0.06.
In the case of G17U G33C it was 0.02; in that of G17U G33U, 0.05.
In the case of G17C C37G it was 0.04; in that of G17C C37A, 0.07; in that of G17C C37U, 0.08.
On to C18G C46G, for which the self-cleavage is 0.25.
In the case of C18G C46A, the self-cleavage was 0.43.
In the case of C18G C46U it was 0.4.
In the case of G17U C23A it was 0.21; in that of G17U C23G, 0.1; in that of G17U C23U, 0.18.
As for G17U C45G, the figure is 0.05.
As for G17U C45U, the self-cleavage was 0.18.
As for G17U C45A, the figure is 0.05.
In the case of G17U G29U it was 0.43; in that of G17U G29A, 0.43.
As for G17U G29C, the figure is 0.39; as for G17U C37U, 0.05; as for G17U C37A, 0.1.
With G17U C37G, the self-cleavage was 0.03.
With G17C U28A, the self-cleavage was 1.16.
In the case of G17C U28C it was 0.36; in that of G17C U28G, 1.62; in that of G17U G40A, 0.05.
In the case of G17U G40U it was 0.06; in that of G17U G40C, 0.17.
Turning to C18A A41C, the self-cleavage was 0.05.
In the case of C18A A41G it was 0.13.
As for C18A A41U, the figure is 0.34.
In the case of C18G C23G it was 0.66; in that of C18G C23U, 0.89.
For the variant C18G C23A, the self-cleavage came out at 0.64.
With C18G A26U, the self-cleavage turned out to be 0.42.
As for C18G A26C, the figure is 0.86; as for C18G A26G, 0.22; as for G17C U20C, 0.66.
As for G17C U20G, the self-cleavage came out at 0.14.
On to G17C U20A, for which the self-cleavage was 0.55.
As to C18A G30C, the self-cleavage stood at 1.99.
As for C18A G30A, the figure is 1.63.
As to C18A G30U, the self-cleavage was determined as 1.55.
As for C18G A41G, the figure is 0.08.
On to C18G A41U, for which the self-cleavage amounted to 0.32.
As for C18G A41C, the figure is 0.03.
In the case of G17C A41C it was 0.04.
Regarding G17C A41U, the self-cleavage amounted to 0.49.
As for G17C A41G, the figure is 0.27; as for C18G C37G, 0.06; as for C18G C37A, 0.07.
In the case of C18G C37U it was 0.09; in that of G17U G36A, 0.09; in that of G17U G36C, 0.09.
G17U G36U: the self-cleavage turned out to be 0.05.
As for G17U U32C, the figure is 0.18; as for G17U U32A, 0.08.
In the case of G17U U32G it was 0.09.
Turning to G17C C23A, the self-cleavage was 1.07.
Turning to G17C C23G, the self-cleavage was 1.22.
As for G17C C23U, the figure is 1.61; as for C18G G40A, 0.05.
Take C18G G40U: the self-cleavage turned out to be 0.06.
As for C18G G40C, the figure is 0.05; as for G17U C18U, 0.12.
In the case of G17U C18G it was 0.12; in that of G17U C18A, 0.18.
On to C18A G44A, for which the self-cleavage turned out to be 0.2.
Turning to C18A G44C, the self-cleavage is 0.22.
As for C18A G44U, the figure is 0.08; as for C18G A39U, 0.47; as for C18G A39C, 0.06.
Regarding C18G A39G, the self-cleavage was found to be 0.07.
As for C18A G35A, the figure is 0.05.
In the case of C18A G35U it was 0.07; in that of C18A G35C, 0.05.
In the case of G17U C31A, the self-cleavage stood at 0.88.
As for G17U C31G, the self-cleavage is 1.67.
Regarding G17U C31U, the self-cleavage is 0.11.
Take G17C C18A: the self-cleavage is 0.1.
Consider G17C C18G, for which the self-cleavage worked out at 0.07.
In the case of G17C C18U it was 0.08.
For the variant G17C G44A, the self-cleavage was determined as 0.11.
On to G17C G44U, for which the self-cleavage is 0.07.
For the variant G17C G44C, the self-cleavage was 0.05.
For the variant G17U U38C, the self-cleavage is 0.04.
In the case of G17U U38A it was 0.17.
In the case of G17U U38G it was 0.08; in that of C18G G29C, 0.49; in that of C18G G29A, 1.38.
In the case of C18G G29U it was 0.96; in that of C18A C37G, 0.07.
Turning to C18A C37A, the self-cleavage worked out at 0.05.
With C18A C37U, the self-cleavage amounted to 0.07.
Take C18G G19U: the self-cleavage was determined as 0.56.
As for C18G G19C, the figure is 0.83; as for C18G G19A, 0.31; as for G17C C31A, 0.65.
As for G17C C31G, the figure is 0.14; as for G17C C31U, 0.16.
Regarding G17A U43G, the self-cleavage was 0.05.
As for G17A U43A, the self-cleavage turned out to be 0.08.
G17A U43C: the self-cleavage came to 0.05.
C18G A25C: the self-cleavage came to 0.2.
As for C18G A25G, the figure is 0.13; as for C18G A25U, 0.51; as for G17C G30C, 0.25.
For the variant G17C G30U, the self-cleavage was 0.05.
In the case of G17C G30A it was 0.94; in that of C18A U34G, 0.04.
In the case of C18A U34A it was 0.03; in that of C18A U34C, 0.06; in that of G17U G44U, 0.06.
In the case of G17U G44A it was 0.07; in that of G17U G44C, 0.05; in that of G17U U28C, 1.16.
Take G17U U28A: the self-cleavage was found to be 0.17.
In the case of G17U U28G it was 0.1; in that of G17C G36U, 0.08.
In the case of G17C G36A it was 0.09; in that of G17C G36C, 0.04; in that of C18A G27U, 1.04.
With C18A G27C, the self-cleavage was found to be 0.62.
With C18A G27A, the self-cleavage came to 1.47.
Regarding G17C A26U, the self-cleavage is 1.41.
In the case of G17C A26C it was 1.18; in that of G17C A26G, 0.07; in that of G17C G21A, 1.72.
In the case of G17C G21C it was 0.61.
As to G17C G21U, the self-cleavage was determined as 1.65.
As for G17U A41U, the figure is 0.09; as for G17U A41C, 0.1.
As for G17U A41G, the figure is 0.08.
With G17A U38G, the self-cleavage was determined as 0.04.
For the variant G17A U38C, the self-cleavage came to 0.12.
As for G17A U38A, the figure is 0.21.
As for G17C G33C, the figure is 0.03; as for G17C G33U, 0.06.
In the case of G17C G33A it was 0.06; in that of G17U C46G, 0.12.
Consider G17U C46U, for which the self-cleavage amounted to 0.16.
As for G17U C46A, the figure is 0.13; as for C18G G44C, 0.1.
Regarding C18G G44A, the self-cleavage was 0.07.
In the case of C18G G44U, the self-cleavage was found to be 0.05.
As for G17A U34G, the figure is 0.02.
In the case of G17A U34C it was 0.06.
